Data on one substance can be found in article PMC3057456.

In this data set the test system is LUX ARRHYTHMO (LUX/PCL1) (Arabidopsis). Briefly: protein binding microarray. Conditions: not stated in the material.

The substance PBM top-ranked 8-mer AGATACGC registered a binding signal (PBM E-score (-0.5 to 0.5)) of 0.487.
